Measurements published in US20090022659A1 (ALDERBIO, published 2009).

Experiments:
[1] = biological target: T1, Tumor Necrosis Factor-alpha (TNF-α), R&D systems 210-TA / 210-TA-CF (human, UniProt P01375 77-233); experiment: biolayer interferometry (Octet QK); biotinylated TNF-α on streptavidin sensor, antibody 8 nM to 1 nM
T1 construct: Bought protein; also called huTNF-α
Method: Binding kinetics of certain Anti-TNF-α antibodies referenced in this experiment were determined using biolayer Interferometry on an Octet QK instrument (ForteBio, Menlo Park, Calif.). Biotinylated TNF-α (R&D systems part number 210-TA, biotinylated using Pierce EZ-link sulfo-NHS-LC-LC-biotin product number 21338 according to manufacturer's protocols) was initially bound onto a streptavidin coated biosensor (ForteBio, Menlo Park, Calif. part number 18-5006). TNF-α coated sensors were then incubated with the Anti-TNF-α antibodies at concentrations ranging from 8 nM to 1 nM. Binding was monitored as an increase in signal over a period of 900 seconds.
Sensors removed from the antibody dilutions and immediately incubated in diluent were monitored for a dissociation phase over an 1800 second time period. For these studies, all proteins were diluted using ForteBio's sample diluent buffer (ForteBio, Menlo Park, Calif. part number 18-5028). Analysis of Kinetic data was performed using ForteBio Software utilizing full dissociation modeling.

[2] = biological target: T1, Tumor Necrosis Factor-alpha (TNF-α), …; experiment: cell-based or functional assay
[3] = biological target: T1, Tumor Necrosis Factor-alpha (TNF-α), …; experiment: OD versus antibody concentration; the assay is not named for this figure (legend: binding affinity of the anti-TNF-α antibody Ab1)
[4] = biological target: T1, Tumor Necrosis Factor-alpha (TNF-α), …; experiment: OD versus antibody concentration, fitted sigmoid; the assay is not named for this figure (legend: binding affinity of the anti-TNF-α antibody Ab1); the unit is that of the concentration axis, none stands beside the number

T1 sequence (P01375 77-233 limits assumed): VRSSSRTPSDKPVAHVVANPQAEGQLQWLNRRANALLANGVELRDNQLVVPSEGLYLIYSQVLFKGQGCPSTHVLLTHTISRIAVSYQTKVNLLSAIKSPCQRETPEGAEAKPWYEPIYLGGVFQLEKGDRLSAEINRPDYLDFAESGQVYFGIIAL

B1: anti-TNF-α antibody Ab13 (antibody, V domains shown)
VH: QSVEESGGRLVTPGTPLTLTCTVSGIDLSSYAMGWVRQAPGKGLEYIGYILSSGITYYASWARGRFTISKTSSTTVDLKMTSLTTEDTATYFCARNGNYNSGTDI
VL: ADIVMTQTPASVSEPVGGTVTIKCQASQNIYSTLAWYQQKPGQPPKLLIYLASTLASGVPSRFKGSGSGTQFTLTISDLECADAATYYCQTSHGSNSDSFGYA
**Q.** With B1 as the binder, how does the Kd [1] read?
**A.** 0.01 to 0.05 nM

B2: anti-TNF-α antibody Ab17 (antibody, V domains shown)
VH: QSLEESGGRLVTPGGSLTLTCTVSGIDLSSYAMGWVRQAPGKGLEYIGYVLGSGITYYASWARGRFTISKTSSTTVDLKMTSLTTEDTATYFCVRNDNYNSGTDI
VL: ADIVMTQTPASVSEPVGGTVTIKCQASQSIYSTLAWYQQKPGQPPKLLISLASTLASGVPSRFKGSGSGTQFTLTISDLECADAATYYCQTNHGSNSDSFGYA
**Q.** B2 was tested. Which Kd [1] did it give?
**A.** 0.01 nM

B3: anti-TNF-α antibody Ab18 (antibody, V domains shown)
VH: QSVEESGGRLVTPGTPLTLTCTVSGIDLSSYAMGWVRQAPGKGLEYIGYILSSGITYYASWARGRFTISKTSSTTVDLKMTSLTTEDTATYFCVRNGNYNVGTDI
VL: ADIVMTQTPASVSEPVGGTVTIKCQASQNIYSTLAWYQQKPGQPPKLLIYLASTLESGVPSRFKGSGSGTEFTLTISDLECADAATYYCQTSHGSNSESFGYA
**Q.** With B3 as the binder, how does the Kd [1] read?
**A.** 0.01 nM

B4: anti-TNF-α antibody Ab14 (antibody, V domains shown)
VH: QSVEESGGRLVTPGTPLTLTCTVSGFSLSSYAMGWVRQAPGKGLEYIGYIGSSGITYYTSWARGRFTISKPSSTTVDLKMTSLTTEDTATYFCARNGNYNSGTDI
VL: ADIVMTQTPASVSEPVGGTVTIKCQASQNIYSTLAWYQQKPGQPPKLLIYLASTLASGVPSRFKGSGSGTQFTLTISDLECADAATYYCQTNHGSNSDSFGYA
**Q.** Which Kd [1] does the source give for B4 here?
**A.** 0.01 nM

B5: anti-TNF-α antibody Ab4 (antibody, V domains shown)
VH: QSVEESGGRLVTPGTPLTLTCTVSGLSLSTETINWVRQAPGKGLEWIGYIDSSGGTGYANWARGRFTISKTSTTVDLKITSPTTGDTATYFCARGTITTGMNI
VL: MDTRAPTQLLGLLLLWLTGATFAAVLTQTPSPVSAVVGGTVSISCQSSKRVVNSVALSWYQQKPGRSPKLLIYFASKLASGVPSRFKGSGSGTQFTLAISDVQCDDAATYYCAGHYTDSGDDA
**Q.** With B5 as the binder, how does the Kd [1] read?
**A.** 0.01 nM

B6: anti-TNF-α antibody Ab1 (antibody, V domains shown)
VH: QSVEESGGRLVTPGTPLTLTCTVSGFSLSTYNMGWVRQAPGKGLEYIGYVLGSGITYYASWAKGRFTISKTSTTVDLEITSPTTEDTATYFCARDAGGRASL
VL: ADIVMTQTPASVEAAVGGTVTIKCQASQNIRSWLAWYQQKPGQPPKLLIYGASTLASGVPSRFQGSGSGTEYTLTIIDLDCADAATYYCQSNYGSNDNSYGNG
notes: Rabbit-derived; they start with the leader peptide and end at CDR3 (no framework 4); no cleavage site is stated for this antibody
**Q.** B6 was tested. Which “EC50 (read off the curve); OD versus antibody concentration (the assay is not named for this figure)” value [2] did it give?
**A.** ~0.0006 µg/mL

**Q.** What about the Kd [1] of the same binder?
**A.** 0.01 nM

**Q.** And the “EC50 (read off the curve)” value [3]?
**A.** ~0.05 µg/mL

**Q.** What about the EC50 [4] of the same binder?
**A.** 0.0461 µg/mL

B7: anti-TNF-α antibody Ab7 (antibody, V domains shown)
VH: QSVEESGGRLVTPGTPLTLTCTVSGFSLSSDNMGWVRQAPGKGLEYIGYITYGGFTYYATWAKGRFTISKTSTTVDLKMTSPTTEDTATYFCAREAGGRANV
VL: ADIVMTQTPASVEAAVGGTVTINCQASQSIVSWLAWYQQKPGQPPKLLIYGASTLASGVPSRFKGSGSGTEYTLTISDLECADAATYYCQSNYGSNSHSFGNT
**Q.** For B7, which Kd [1] is on record?
**A.** 0.01 nM

B8: anti-TNF-α antibody Ab12 (antibody, V domains shown)
VH: QSVEESGGRLVTPGTPLTLTCTVSGFSLSHYAMGWVRQAPGKGLEWIGIISSNGVTYYATWASGRFTISKTSTTVDLKITSPTTEDTATYFCARGDDTSIIYYIYAFDL
VL: ALVMTQTPSPVSAAVGGTVTISCQSSESVVFNNRLSWYQQKPGQPPKLLIYWASTLASGVPSRFKGSGSGTQFTLTISGVECDDAATYYCAGYKSYSNDDFA
**Q.** With B8 as the binder, how does the Kd [1] read?
**A.** 0.01 to 0.025 nM

B9: anti-TNF-α antibody Ab9 (antibody, V domains shown)
VH: QSVEESGGRLVTPGTPLTLTCTVSGFSLSIYWMTWVRQAPGKGLEWIGVISTDGSAYYATWAKGRFTISKTSSTTVDLRITSPTTEDTATYFCAGGGGMDP
VL: AQVLTQTPSSVSAAVGGTVTVSCQSSQNVYNNNDFVWFQQKPGQPPKRLIYWASTLASGVPSRFKGSGSGTQFTLTINDLECDDAATYYCAGAYITELRT
**Q.** How did the Kd [1] turn out when B9 was run?
**A.** 0.025 to 0.05 nM

B10: anti-TNF-α antibody Ab11 (antibody, V domains shown)
VH: QSVEESGGRLVTPGTPLTLTCTVSGFSLSIYWMTWVRQAPGKGLEWIGVIASDGSTYYASWAKGRFTISKASSTTVDLKIASPTIEDTATYFCAGGGGMDP
VL: AQVMTQTPASVSAAVGGTVTISCQSSESVYNNNDLIWFRQKPGQPPKRLIYWASQLASGVSSRFKGSGSGTQFTLTINDLECDDAATYYCAGAYDSEIRA
**Q.** With B10 as the binder, how does the Kd [1] read?
**A.** 0.02 nM

B11: anti-TNF-α antibody Ab5 (antibody, V domains shown)
VH: QSVEESGGRLVTPGTPLTLTCAVSGFSLSVYWMTWVRQAPGKGLEWIGTISTDGITVYATWAKGRFTISKTSSTAVDLKLTSPTTEDTATYFCAGGGGMDP
VL: MDTRAPTQLLGLLLLWLPGATLAQVVTQTPASVSAAVGGTVTISCQSSQNVYNNNDLVWFQQKPGQPPKRLVYWASTLASGVSSRFRGSGSGTQFILTISDLQCDDAATYYCAGAYDSEIRA
**Q.** Which Kd [1] does the source give for B11 here?
**A.** 0.025 to 0.05 nM

B12: anti-TNF-α antibody Ab10 (antibody, V domains shown)
VH: QSVEESGGRLVTPGTPLTLTCTVSGFSLSIYWMTWVRQAPGRGLEWIGVISTDGTTYYANWAKGRFTISKASSTTVDLRITSPTTEDTATYFCAGGGGMDP
VL: AQVLTQTASSVSAAVGGTVTISCQSSQSVYNNNDFIWFQQKPGQPPKRLIYWASTLASGVSSRFKGSGSGTQFTLTINDLECDDAAVYYCAGAYDSEVRA
**Q.** How did the Kd [1] turn out when B12 was run?
**A.** 0.015 to 0.03 nM

B13: anti-TNF-α antibody Ab6 (antibody, V domains shown)
VH: METGLRWLLLVAVFKGVQCQSVEESGGRLVTPGTPLTLTCTVSGFSLSSNTISWVRQAPGKGLEWIGYIWRGVSTYYATWAKGRFTISKTSSTTVDLKITGPTTEDTATYFCARDAGDGGGYSLDL
VL: MDTRAPTQLLGLLLLWLPDARCAYDMTQTPASVEVAGGGTVTIKCQASQSIANRLAWYQQKPGQPPKLLIYYASTLASGVPSRFSGSGSGTEFTLTISGVQCDDAATYYCQQTYSDNNVDNA
**Q.** Which Kd [1] does the source give for B13 here?
**A.** 0.01 nM

B14: anti-TNF-α antibody Ab2 (antibody, V domains shown)
VH: QSVEESGGRLVTPGTPLTLTCSVSGFSLNNYVMGWVRQAPGKGLEFIGYIAFGIGPYYASWAKGRFTISSTSSTTVDLKMTSLTPEDTATYFCARGDYSGNDI
VL: ADIVMTQTPSSVSEPVRGTVTIKCQASQNIYSYLSWYQQSPGQPPKLLIYKASTLASGVPSRFKGSGSGTDFTLTISDLECADAATYYCQSNYGSDSDSFGNA
**Q.** With B14 as the binder, how does the Kd [1] read?
**A.** 0.01 nM

B15: anti-TNF-α antibody Ab16 (antibody, V domains shown)
VH: QSLEESGGRLVKPDETLTITCTVSGIDLNNYNMGWVRQAPGKGLEYIGYILGSGITYYATWAKGRFTISKTSSTTVDLKMTSLTTEDTATYFCAGSIYYRGYGMDP
VL: ADIVMTQTPASVSEPVGGTVTIKCQASQTIYSSLSWYQQKPGQRPKLLIYAASTLASGVPSRFKGSGSGTDFTLTISDLECADAATYYCQSNHGSNSDSYGNA
**Q.** Which Kd [1] does the source give for B15 here?
**A.** 0.01 nM

B16: anti-TNF-α antibody Ab19 (antibody, V domains shown)
VH: QSVEESGGRLVTPGTPLTLTCSVSGFSLNNYIMGWVRQAPGKGLEFIGYIAFGIGPYYASWAKGRFTSSSTSSTTVDLKMTSLTPEDTATYFCARGDVSGNDI
VL: ADIVMTQTPSSVSEPVRGTVTIKCQASQNIYSYLSWYRQSPGQPPNLLIYKASTLASGVPSRFKGSGSGTDFTLTISDLECADAATYYCQSNYGSNSDSFGNA
**Q.** How did the Kd [1] turn out when B16 was run?
**A.** 0.06 nM

B17: anti-TNF-α antibody Ab8 (antibody, V domains shown)
VH: QSVEESGGRLVTPGTPLTLTCTASGFSLSNYVMGWVRQAPGKGLEFIGYIAFGIGPYYATWAKGRFSISSTSSTTVDLTMTSLTPEDTATYFCARGDYSGNNI
VL: ADIVMTQTPSSVSEPVGGTVTIMCQASQNIYSYLSWYQQKPGQPPKLLIYKASTLASGVPSRFAGSGSGTDFTLTISDLECADAATYYCQSNYGSNSDSFGNA
**Q.** For B17, which Kd [1] is on record?
**A.** 0.01 nM

B18: anti-TNF-α antibody Ab3 (antibody, V domains shown)
VH: QSVEESGGRLVTPGTPLTLTCKVSGFSLSSYDMTWVRQAPGKGLEWIGYIWNDGSTAYASWATGRFTISKTSTTVDLKIASPTTEDTATYFCARGPVFATTLGYYFTI
VL: MDTRAPTQLLGLLLLWLPGSTFAIKVTQTPASVSAAVGGTVSINCQASEDIESYLAWYQQKPGQPPKLLLYDASALASGVPSRFKGSGSGTEYTLTISGVECADAATYYCQQGYSYSNVDNS
**Q.** With B18 as the binder, how does the Kd [1] read?
**A.** 0.02 to 0.04 nM

B19: anti-TNF-α antibody Ab15 (antibody, V domains shown)
VH: QSVEESGGRLVSPGTPLTLTCTVSGIDLSSYGMGWVRQAPGKGLEYIGYMIASGITYYAAWAKGRFTISKTSSTTVDLKITSPTTEDTATYFCARNYYGMDP
VL: ADIVMTQTPASVSEPVGGTVTIKCQASQSIYSSFSWYQQIPGQRPKLLIYYASTLASGVPSRFSGSGSGTDFTLTISDLECADAATYYCQSNHGSNGDSFGNA
**Q.** How did the Kd [1] turn out when B19 was run?
**A.** 0.01 nM
